Laboratory results taken from US20230263864A1, “THERAPEUTIC MICROBES” (Danmarks Tekniske Universitet, priority 2020, published 2023).

B1: Hiracin JM79: bacteriocin (SEQ ID NO. 27) co-expressed by L-DOPA producing E. coli Nissle (protein)
chain: MKKTAIAIAVALAGFATVAQAATYYGNGLYCNKEKCWVDWNQAKGEIGKIIVNGWVNHGPWAPRR
modifications: Hiracin JM79
B2: ubericin A: bacteriocin (SEQ ID NO. 29) co-expressed by L-DOPA producing E. coli Nissle (protein)
chain: MKKTAIAIAVALAGFATVAQAKTVNYGNGLYCNQKKCWVNWSETATTIVNNSIMNGLTGGNAGWHSGGRA
modifications: Ubericin A
B3: Enterocin A: bacteriocin (SEQ ID NO. 31) co-expressed by L-DOPA producing E. coli Nissle, pMUT-DOPA_5-EntA (protein)
chain: MKKTAIAIAVALAGFATVAQATTHSGKYYGNGVYCTKNKCTVDWAKATTCIAGMSIGGFLGGAIPGKC
modifications: Enterocin A

Experiments:
[1] = Oral gavage of engineered E. coli Nissle in mice, metabolites and body weight; type: in vivo, mice (NMRI); details: carbidopa 10 mg/kg IP every 24 h
Protocol: Female mice (NMRI, supplied by Taconic Biosciences, 6 weeks of age) were group-housed on a 12-h light:dark cycle at constant temperature with ad libitum access to food and water in a Specific Pathogen Free (SPF) facility. Upon delivery, mice were given 5 days to adjust to new location. Cohort size was 8 animals, and 4 different cohorts were tested, see below. All animals received Streptomycin (5 g/L) in the drinking water to ensure colonization, 3 days before being gavaged and throughout the experiment. A single oral gavage of 10^8 cells was administered of either L-DOPA-producing (called ‘EcN_DOPA’) or a control E. coli Nissle (‘EcN_CTRL’) strain without expression of the tyrosine hydroxylase gene. Samples were taken for the following 7 days, after which animals were euthanized and final blood samples and gut content samples were collected. […] Fresh fecal samples were collected daily for 7 days to quantify colonization and metabolite levels. […]
In vivo sample analysis: Plasma, tissue samples, gut content and fecal samples were analyzed for DOPA-derived and related serotonin metabolites using LC-MS. […] Gut and brain tissue was also frozen for real-time quantitative PCR (RT-qPCR) and metabolite analysis. Quantification of metabolites from in vivo samples was performed as described above (‘LC-MS analysis’).

E. faecalis = test: Bacteriocin assay (halos on BHI agar); type: cell-based; details: overnight 37 C, FIG. 6C
Protocol: Three colonies of each E. coli Nissle strain were inoculated in 5 ml of BHI broth and grown overnight at 37° C. in a shaking incubator. The following day, 1 ml of the culture was washed with PBS buffer once and 10 μl were used to spot the strains on top of a BHI agar plate. After drying, top BHI agar was mixed with 500 μl of previously grown E. faecalis, and was placed on top of the BHI agar containing the dried spots of the E. coli strains. Plates were dried for 10 minutes and then incubated at 37° C. overnight.

Molecule	Plasma serotonin levels ([1]; EcN_DOPA p=0.08)	Serotonin (5-HT) concentrations in urine ([1]; single oral gavage 10^8 cells, EcN_DOPA vs control strain p=0.06)	inhibition of E. faecalis around EcN spots (E. faecalis)
C[C@@](Cc1ccc(O)c(O)c1)(NN)C(=O)O [carbidopa]	reduced	decreased below detection level	
B1			halos of inhibition
B2			halos of inhibition
B3			halos of inhibition
